Test results as given in the supplement of paper PMC10126150.
± gives the standard deviation of the averaged measurements.

Test system: ATP
Assay: switch fluorescence ratio, 500 uM ATP over buffer (Cy3 cluster intensity, sum of 5 cycles each) (fold (ratio)); higher = stronger signal-on switching upon ATP binding; sequences stand for … in TCGTCGGCAGCGTCAGATGTGTATAAGAGACAGTTTTTTTTTTTTTTTTTTTTTTTTT…TC
Settings: aptamer strand: ATP DNA aptamer (quencher-CACCTGGGGGAGTATTGCGGAGGAAGG + anchor), 100 nM annealed; ATP concentration: 500 uM
In short: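 After annealing to 100 nM quencher-labelled ATP aptamer, Cy3-labelled switching-strand clusters on a modified Illumina MiSeq flow-cell were imaged in selection buffer. A second image followed after 15 min with 500 uM ATP at 22 °C, and five such buffer/ATP cycles were done, each separated by NaOH stripping and re-annealing. The fluorescence ratio, averaged per switch-domain sequence, is summed target-cycle over summed buffer-cycle Cy3 intensity per cluster, with clusters outside 100-1000 RFU excluded.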
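Further: ATP exposure 15 min at 22 °C before imaging.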

TTATAGTTAT gave a switch fluorescence ratio of 1.001 ± 0.0029.

For GGGGGCGCCG, the switch fluorescence ratio was 1.01 ± 0.097.

Sequence TCTCGGGGCG has a switch fluorescence ratio of 1 ± 0.055.

ACCACAAAGG gave a switch fluorescence ratio of 1.48 ± 0.61.

For ATTGAATAGG, the switch fluorescence ratio was 1.0089 ± 0.0003.

For TAAAGGCTAT, the switch fluorescence ratio was 1 ± 0.026.

CTTTAAGGGC showed a switch fluorescence ratio of 0.986 ± 0.022.

In the case of TCTGGGTGGT, the switch fluorescence ratio is reported as 0.977 ± 0.042.

Sequence GGGAGTGGGC has a switch fluorescence ratio of 0.87939 ± 0.00069.

In the case of TCGTGTGTTC, the switch fluorescence ratio is reported as 1.022 ± 0.0047.

For GAGGCGGCAT, the switch fluorescence ratio was 1.04 ± 0.0066.

Sequence GTAATTTTGC has a switch fluorescence ratio of 0.989 ± 0.059.

Sequence GGGGGAGTCA has a switch fluorescence ratio of 1 ± 0.056.

In the case of GATAGGGGAA, the switch fluorescence ratio is reported as 0.978 ± 0.022.

In the case of CTCCTAGTCA, the switch fluorescence ratio is reported as 1.05 ± 0.061.

For ACGGGGTCAG, the switch fluorescence ratio was 0.999 ± 0.026.

GGGTAACTGG showed a switch fluorescence ratio of 1 ± 0.027.

TTTCCTGACG gave a switch fluorescence ratio of 1.06 ± 0.028.

Work on AGGTAGAGGA yielded a switch fluorescence ratio of 1.01 ± 0.035.

CATAATTAAT showed a switch fluorescence ratio of 0.955 ± 0.023.

TACAAGGGTA was tested, and the switch fluorescence ratio was 1.01 ± 0.06.

Work on GAAGAGCGGG yielded a switch fluorescence ratio of 0.978 ± 0.016.

CCTTAGATTA showed a switch fluorescence ratio of 1.01 ± 0.031.

Work on GTTGTGGCTC yielded a switch fluorescence ratio of 0.975 ± 0.036.

Work on GATAGATGTT yielded a switch fluorescence ratio of 0.979 ± 0.02.

Work on AAACGCAGGG yielded a switch fluorescence ratio of 1.03 ± 0.029.

ATGCAGGATT showed a switch fluorescence ratio of 0.981 ± 0.02.

GATAAATGGG gave a switch fluorescence ratio of 0.994 ± 0.024.

GGGGTAATTT was tested, and the switch fluorescence ratio was 1.02 ± 0.035.

With CAGCGAGGAA the switch fluorescence ratio was 1.014 ± 0.0091.

AGACGGACGT showed a switch fluorescence ratio of 1.05 ± 0.013.

For AAGGGGTCCA, the switch fluorescence ratio was 0.991 ± 0.029.

For GGGAGTATAT, the switch fluorescence ratio was 0.992 ± 0.016.

TAATGGGCTT was tested, and the switch fluorescence ratio was 0.997 ± 0.012.

Work on CCTATAATAT yielded a switch fluorescence ratio of 1.05 ± 0.024.

Work on TTGCTCAACT yielded a switch fluorescence ratio of 1 ± 0.026.

In the case of GCGGGGGGCG, the switch fluorescence ratio is reported as 1.01 ± 0.041.

Work on TAGGGAGTCA yielded a switch fluorescence ratio of 0.971 ± 0.019.

ATCGAGGCGT gave a switch fluorescence ratio of 1.01 ± 0.019.

GTTTTATAAA gave a switch fluorescence ratio of 0.9762 ± 0.0028.

TATTCAGTCG showed a switch fluorescence ratio of 0.9927 ± 0.0051.

AACTGCGCTG gave a switch fluorescence ratio of 1.01 ± 0.035.

With CTATTGATGG the switch fluorescence ratio was 0.996 ± 0.015.

Sequence TGGCTGCTGG has a switch fluorescence ratio of 0.949 ± 0.013.

CCACAGGGTG was tested, and the switch fluorescence ratio was 4.53 ± 1.5.

Work on TTTAACGCAT yielded a switch fluorescence ratio of 1.24 ± 0.12.

AATACGGTCT showed a switch fluorescence ratio of 1 ± 0.06.

In the case of GTTTTTTGGG, the switch fluorescence ratio is reported as 1 ± 0.042.

TGATTCCGGT was tested, and the switch fluorescence ratio was 0.992 ± 0.013.

Sequence ATGAGGTGAT has a switch fluorescence ratio of 1.057 ± 0.0041.

Sequence ATGTGGGGAC has a switch fluorescence ratio of 1.01 ± 0.084.

AAGGGCAGTA showed a switch fluorescence ratio of 0.998 ± 0.01.

In the case of TAGCAAAAAG, the switch fluorescence ratio is reported as 1.02 ± 0.031.

With AATAATGGAA the switch fluorescence ratio was 0.987 ± 0.015.

AACTTTCCTC gave a switch fluorescence ratio of 2.49 ± 0.076.

In the case of TGCTGGCCGG, the switch fluorescence ratio is reported as 0.98 ± 0.022.

AAAATAATCT was tested, and the switch fluorescence ratio was 0.9793 ± 0.004.

ATGCATGATT was tested, and the switch fluorescence ratio was 0.9822 ± 0.0051.

In the case of TTCGGCTTGG, the switch fluorescence ratio is reported as 0.984 ± 0.035.

Sequence GTGCGAGAGC has a switch fluorescence ratio of 1.01 ± 0.043.

TACAAGGAGA gave a switch fluorescence ratio of 1 ± 0.012.

AATTTAAAGT was tested, and the switch fluorescence ratio was 0.951 ± 0.052.

For AGGGACGGGG, the switch fluorescence ratio was 0.991 ± 0.047.

Work on GAGTCAGTGG yielded a switch fluorescence ratio of 0.984 ± 0.012.

TGAGTTAGTT was tested, and the switch fluorescence ratio was 1.01 ± 0.016.

GGTTCATGGT was tested, and the switch fluorescence ratio was 0.989 ± 0.011.

With GGCAGAAAGT the switch fluorescence ratio was 1.014 ± 0.0027.

Sequence AAGGGCAGAA has a switch fluorescence ratio of 0.973 ± 0.03.

CTGCTGCAGG gave a switch fluorescence ratio of 1.03 ± 0.044.

Work on AGGCGATATA yielded a switch fluorescence ratio of 1 ± 0.024.

Work on TAAATGGA yielded a switch fluorescence ratio of 1.04 ± 0.039.

Work on CAGCCGCTGT yielded a switch fluorescence ratio of 1.79 ± 0.026.

In the case of TGAATGTAGC, the switch fluorescence ratio is reported as 0.9781 ± 0.0024.

AGGGGCGTGA gave a switch fluorescence ratio of 0.99 ± 0.011.

Sequence ACCATTGGGG has a switch fluorescence ratio of 0.993 ± 0.031.

Sequence TTGAATGTTT has a switch fluorescence ratio of 0.992 ± 0.059.

Sequence TTGGGGCCAG has a switch fluorescence ratio of 1.09 ± 0.12.

For AAAGTGCTAT, the switch fluorescence ratio was 1.02 ± 0.048.

With AGGTGTTAGC the switch fluorescence ratio was 0.955 ± 0.046.

TCGGGAGTGG gave a switch fluorescence ratio of 0.9905 ± 0.0016.

For TGGTGCCGGT, the switch fluorescence ratio was 1.01 ± 0.041.

With TGGTCTTGTA the switch fluorescence ratio was 1.04 ± 0.021.

Work on AGCGGTTGGG yielded a switch fluorescence ratio of 0.9966 ± 0.0071.

In the case of GCCGAAGCTG, the switch fluorescence ratio is reported as 1.08 ± 0.003.

CTACAAAAAA was tested, and the switch fluorescence ratio was 1.02 ± 0.034.

ATGCTATGTA was tested, and the switch fluorescence ratio was 1.01 ± 0.033.

Work on TATTGTTGAC yielded a switch fluorescence ratio of 1.037 ± 0.01.

For CCGGGAGCAG, the switch fluorescence ratio was 1.95 ± 0.61.

TCGGCTGGAA was tested, and the switch fluorescence ratio was 1.027 ± 0.0025.

Sequence GGGGGAAGAG has a switch fluorescence ratio of 1.01 ± 0.021.

For GTGTGTCCGG, the switch fluorescence ratio was 0.987 ± 0.026.

AATAGGGGTT showed a switch fluorescence ratio of 0.984 ± 0.03.

With ATGATGTATG the switch fluorescence ratio was 0.989 ± 0.027.

For TTTTCAGGCG, the switch fluorescence ratio was 1 ± 0.07.

Sequence CTGTTTTTAT has a switch fluorescence ratio of 1.01 ± 0.034.

AAGGCCGTGA gave a switch fluorescence ratio of 1.03 ± 0.085.

For CATAGGGCCA, the switch fluorescence ratio was 1 ± 0.012.

With TATTTCTGTG the switch fluorescence ratio was 1.02 ± 0.034.

AATAGTAGCG gave a switch fluorescence ratio of 1.01 ± 0.054.

Sequence GACTGGGGAC has a switch fluorescence ratio of 1.01 ± 0.012.

GAGTAGGGGT gave a switch fluorescence ratio of 1.01 ± 0.022.

For AGAGGGGTAT, the switch fluorescence ratio was 1.04 ± 0.017.

AGTAATGTAG gave a switch fluorescence ratio of 1 ± 0.037.

TTATAGCCCA showed a switch fluorescence ratio of 1.0151 ± 0.00025.

GGGGGATGAT showed a switch fluorescence ratio of 0.9889 ± 0.007.

TTCTTTTACG gave a switch fluorescence ratio of 1.049 ± 0.0082.

Sequence AGGCAATTTG has a switch fluorescence ratio of 1 ± 0.071.

Sequence ATGGGCCCAT has a switch fluorescence ratio of 1.01 ± 0.011.

AGCATGAGAT gave a switch fluorescence ratio of 1.03 ± 0.039.

TTAAGGGATT gave a switch fluorescence ratio of 0.993 ± 0.032.

TGAGACTGGT showed a switch fluorescence ratio of 0.999 ± 0.023.

Work on GGTTTTGTCA yielded a switch fluorescence ratio of 1.01 ± 0.019.

TGCTACAGGA gave a switch fluorescence ratio of 1.02 ± 0.0049.

Sequence AAAAAAGCAG has a switch fluorescence ratio of 1.024 ± 0.0014.

Work on CGGTCCGGTG yielded a switch fluorescence ratio of 1.04 ± 0.026.

ATGCATGGTT gave a switch fluorescence ratio of 1.02 ± 0.054.

TCATAAAACC was tested, and the switch fluorescence ratio was 1.09 ± 0.11.

Work on GACCGAAAGT yielded a switch fluorescence ratio of 0.998 ± 0.01.

In the case of ACGTACCGGC, the switch fluorescence ratio is reported as 1.31 ± 0.075.

AAAACTTGAA gave a switch fluorescence ratio of 1.07 ± 0.086.

TTAGTAAGGC showed a switch fluorescence ratio of 1.22 ± 0.2.

In the case of GTGCGATTTA, the switch fluorescence ratio is reported as 0.992 ± 0.034.

AATTATTACT was tested, and the switch fluorescence ratio was 1.02 ± 0.034.

Work on TGGTACGGGA yielded a switch fluorescence ratio of 0.999 ± 0.043.

Sequence TAGATGGTAG has a switch fluorescence ratio of 0.973 ± 0.016.

For TTCTTTTTCA, the switch fluorescence ratio was 1.06 ± 0.067.

TTAACCGGGT was tested, and the switch fluorescence ratio was 1.01 ± 0.057.

AATCGGGGTT gave a switch fluorescence ratio of 0.948 ± 0.015.

AGGATTGGTG showed a switch fluorescence ratio of 0.999 ± 0.052.

In the case of CAATTGCTGG, the switch fluorescence ratio is reported as 0.949 ± 0.035.

CGGGATAGTA showed a switch fluorescence ratio of 0.994 ± 0.041.

Sequence CAGGCTGGAC has a switch fluorescence ratio of 1.06 ± 0.046.

GGTTAAGGTG gave a switch fluorescence ratio of 1.28 ± 0.071.

CGGGGTTGAC was tested, and the switch fluorescence ratio was 0.9924 ± 0.0098.

CAAGGACGAG showed a switch fluorescence ratio of 1.02 ± 0.041.

For ATGTAACTAT, the switch fluorescence ratio was 1.03 ± 0.021.

For CACCGGGAAC, the switch fluorescence ratio was 1.56 ± 0.037.

Work on CAGCGCCGTT yielded a switch fluorescence ratio of 1.006 ± 0.004.

CTTGTAAAAT showed a switch fluorescence ratio of 0.993 ± 0.014.

With GGGGAGTAGG the switch fluorescence ratio was 1.03 ± 0.049.

Work on CAATTTTTCG yielded a switch fluorescence ratio of 1.02 ± 0.048.

CGGGGTAAGG showed a switch fluorescence ratio of 0.988 ± 0.024.

ATAGCTTGTA was tested, and the switch fluorescence ratio was 0.995 ± 0.037.

TGAGGTTGAG was tested, and the switch fluorescence ratio was 1.03 ± 0.059.

For CATGGGCCGT, the switch fluorescence ratio was 1.02 ± 0.035.

GGAGGGGCAC was tested, and the switch fluorescence ratio was 0.979 ± 0.036.

TCTGATGAAT was tested, and the switch fluorescence ratio was 1.02 ± 0.034.

In the case of TGTTTGTTGG, the switch fluorescence ratio is reported as 0.9887 ± 0.009.

With TTGATATTTT the switch fluorescence ratio was 1.04 ± 0.096.

Sequence TTGGGTATAT has a switch fluorescence ratio of 0.979 ± 0.037.

TGAAGGGGAG showed a switch fluorescence ratio of 1.01 ± 0.069.

Work on GAGTACCCGG yielded a switch fluorescence ratio of 1 ± 0.018.

Work on CCACGCGGCA yielded a switch fluorescence ratio of 1.19 ± 0.091.

Sequence TTGGTCCGTG has a switch fluorescence ratio of 1.01 ± 0.071.

AGGGTGTGTC was tested, and the switch fluorescence ratio was 1.007 ± 0.0098.

ATCCTTTCTT was tested, and the switch fluorescence ratio was 1.003 ± 0.0062.

For CTATTAGATG, the switch fluorescence ratio was 0.994 ± 0.03.
